2 molecules from patent publication US20160000930A1 (University of Texas, published 2016) can be followed below.

Bridge positions count the residues as written; N and C are the ends. Ends that are not written are not given here.

Test [1] concerns the target T1, recombinant bacterially-purified mouse ΔDCN (His6-tagged, amino acids 45-354 of mouse DCN) (mouse, UniProt P28654 45-354).
T1 construct: Expressed in bacteria, so not glycosylated; also called delta-DCN; His6-ΔDCN
T1 sequence: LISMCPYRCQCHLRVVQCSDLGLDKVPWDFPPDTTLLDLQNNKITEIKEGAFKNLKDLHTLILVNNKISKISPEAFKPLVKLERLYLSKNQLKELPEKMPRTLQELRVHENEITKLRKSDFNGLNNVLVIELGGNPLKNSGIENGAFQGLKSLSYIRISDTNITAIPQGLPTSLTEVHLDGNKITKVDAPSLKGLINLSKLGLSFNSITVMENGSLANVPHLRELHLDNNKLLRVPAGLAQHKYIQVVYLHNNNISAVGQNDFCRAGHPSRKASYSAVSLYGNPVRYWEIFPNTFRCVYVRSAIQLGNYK
Put plainly: ELISA, DCN forms coated, FLAG-resistin detected with anti-FLAG (FIG. 6D); reference: full-length DCN (mDCN). The protocol: (§1) For bacterial expression, full-length mouse core DCN and ΔDCN isoforms were produced by cloning fragments encoding amino acids 1-354 and 45-354 of mouse DCN cDNA (OriGene) or of CLIC4 cDNA (OriGene) in-frame with the His₆Tag into pET28a vector, respectively. His₆-tagged proteins were purified with His-Tag kit (Novagen). For ELISA binding assays, 100 μl of 10 μg/ml of indicated His₆-DCN preparations, His₆-CLIC4 (control His₆-protein), NS0 cell-expressed mouse DCN (R&D Systems), purified bovine DCN (Sigma-Aldrich), or BSA were coated and immobilized onto Maxisorb Immunoplates (96 well; NUNC) overnight at 4° C., followed by blocking with 3% BSA, and then incubating with 100 μl of indicated concentrations of WAT7 or control WAT2 peptides. For adipokines binding assay, FLAG-tagged mouse resistin produced in HEK293 cells (Enzo Life Sciences), or control FLAG-BAP protein (Sigma-Aldrich) were incubated at the concentrations indicated. Bound peptides or FLAG-resistin were probed with corresponding rabbit anti-peptide Genemed antibodies (1:2,000) or rabbit anti-FLAG antibodies (Sigma-Aldrich, 1:2,000) followed by secondary goat anti-rabbit HRP-conjugated antibodies (Millipore, 1:5,000) and signal detection with Ultra-TMB (Pierce) substrate and measurement of absorbance at 450 nm. […]
On the technique in general: ELISA stands for enzyme-linked immunosorbent assay.

Test [2] deals with T2, glycosylated bovine DCN (purified, Sigma-Aldrich) (bovine, UniProt P21793 31-360, glycosylated (GAG chain)).
T2 construct: also called bDCN*
T2 sequence (P21793 31-360 limits assumed): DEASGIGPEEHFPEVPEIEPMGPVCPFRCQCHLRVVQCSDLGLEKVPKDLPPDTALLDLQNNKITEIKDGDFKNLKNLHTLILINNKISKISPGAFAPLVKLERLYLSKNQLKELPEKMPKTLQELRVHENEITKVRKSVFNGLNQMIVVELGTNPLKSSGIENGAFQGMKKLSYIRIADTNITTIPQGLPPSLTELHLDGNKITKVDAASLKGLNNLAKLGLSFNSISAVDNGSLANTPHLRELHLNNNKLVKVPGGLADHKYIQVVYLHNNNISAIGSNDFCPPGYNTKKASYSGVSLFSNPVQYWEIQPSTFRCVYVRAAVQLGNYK
Put plainly: ELISA, protein coated, FLAG-resistin detected with anti-FLAG (FIG. 6D).
From the text: as §1, with “Signal was detected by Odyssey imaging system using anti-goat IRDye 800CW or anti-rabbit IRDye 680 both from Licor Biosciences. Bovine DCN was from Sigma-Aldrich, NS0-derived murine DCN was from R&D Systems. Murine DCN cDNA was generated from WAT total RNA using SuperScript kit (Invitrogen). For bacterial” for “For bacterial”, “WAT2 peptides. […] Bound peptides” for “WAT2 peptides. For adipokines binding assay, FLAG-tagged mouse resistin produced in HEK293 cells (Enzo Life Sciences), or control FLAG-BAP protein (Sigma-Aldrich) were incubated at the concentrations indicated. Bound peptides”

The target of test [3] is T3, bovine serum albumin (bovine, UniProt P02769 25-607).
T3 construct: Background control in ELISA; also called BSA
T3 sequence (P02769 25-607 limits assumed): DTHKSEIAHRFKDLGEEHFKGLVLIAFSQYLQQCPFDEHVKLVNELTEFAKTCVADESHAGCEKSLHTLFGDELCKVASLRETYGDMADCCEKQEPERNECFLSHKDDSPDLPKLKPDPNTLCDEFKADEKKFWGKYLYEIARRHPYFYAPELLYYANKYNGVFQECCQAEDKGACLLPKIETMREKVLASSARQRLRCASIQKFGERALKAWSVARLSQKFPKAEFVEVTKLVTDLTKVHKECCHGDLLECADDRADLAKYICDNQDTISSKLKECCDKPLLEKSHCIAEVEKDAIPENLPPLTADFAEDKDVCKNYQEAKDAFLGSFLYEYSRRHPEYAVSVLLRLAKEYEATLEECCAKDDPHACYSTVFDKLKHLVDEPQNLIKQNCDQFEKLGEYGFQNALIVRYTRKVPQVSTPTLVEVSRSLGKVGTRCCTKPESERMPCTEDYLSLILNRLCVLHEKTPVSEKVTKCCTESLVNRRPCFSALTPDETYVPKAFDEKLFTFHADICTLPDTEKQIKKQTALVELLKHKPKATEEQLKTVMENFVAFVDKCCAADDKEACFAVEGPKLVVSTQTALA
The test is described as follows: ELISA, BSA coated as background control (FIG. 6D).
From the text: as §1, with “Signal was detected by Odyssey imaging system using anti-goat IRDye 800CW or anti-rabbit IRDye 680 both from Licor Biosciences. Bovine DCN was from Sigma-Aldrich, NS0-derived murine DCN was from R&D Systems. Murine DCN cDNA was generated from WAT total RNA using SuperScript kit (Invitrogen). For bacterial” for “For bacterial”, “WAT2 peptides. […] Bound peptides” for “WAT2 peptides. For adipokines binding assay, FLAG-tagged mouse resistin produced in HEK293 cells (Enzo Life Sciences), or control FLAG-BAP protein (Sigma-Aldrich) were incubated at the concentrations indicated. Bound peptides”

The target of test [4] is T2, glycosylated bovine DCN (purified, …). The test is described as follows: ELISA, protein coated (FIG. 16B).
From the text: as §1, with “Bovine DCN was from Sigma-Aldrich, NS0-derived murine DCN was from R&D Systems. Murine DCN cDNA was generated from WAT total RNA using SuperScript kit (Invitrogen). For bacterial” for “For bacterial”, “WAT2 peptides. […] Bound peptides” for “WAT2 peptides. For adipokines binding assay, FLAG-tagged mouse resistin produced in HEK293 cells (Enzo Life Sciences), or control FLAG-BAP protein (Sigma-Aldrich) were incubated at the concentrations indicated. Bound peptides”

In test [5] the target is T3, bovine serum albumin. Put plainly: ELISA, BSA coated as background control.
From the text: as §1, with “Signal was detected by Odyssey imaging system using anti-goat IRDye 800CW or anti-rabbit IRDye 680 both from Licor Biosciences. Bovine DCN was from Sigma-Aldrich, NS0-derived murine DCN was from R&D Systems. Murine DCN cDNA was generated from WAT total RNA using SuperScript kit (Invitrogen). For bacterial” for “For bacterial”, “WAT2 peptides. […] Bound peptides” for “WAT2 peptides. For adipokines binding assay, FLAG-tagged mouse resistin produced in HEK293 cells (Enzo Life Sciences), or control FLAG-BAP protein (Sigma-Aldrich) were incubated at the concentrations indicated. Bound peptides”

B1: FLAG-tagged mouse resistin produced in HEK293 cells (Enzo Life Sciences) (ligand, UniProt Q99P87 21-114, looked up)
chain: SSMPLCPIDEAIDKKIKQDFNSLFPNAIKNIGLNCWTVSSRGKLASCPEGTAVLSCSCGSACGSWDIREEKVCHCQCARIDWTAARCCKLQVAS
notes: Bought protein; also called FLAG-resistin; ADSF; not shown: FLAG tag
With B1, the “fold lower molar concentration for binding than to full-length DCN” value in test [1] is 100 fold. Moreover, the binding result (in test [2]; in the test with bovine serum albumin [3]) was “no binding” throughout.

B2: WAT7 peptide, cysteine-cyclized synthetic (CSWKYWFGEC) (peptide)
peptide: CSWKYWFGEC
modifications: disulfide 1-10
notes: Chemically synthesized (Genemed Synthesis); also called cyclic WAT7
With B2, the binding result (in test [4]; with bovine serum albumin [5]) was “no binding” in each case.
